# Assay results from patent publication US20060252692A1, “Inhibitors for use in hemostasis” (ZymoGenetics, Inc., priority 2002, published 2006).
# B1: zsig37: adipocyte complement related protein homolog, polypeptide of SEQ ID NO:2, inhibits collagen-mediated platelet activation and the complement pathway (protein, listed as Homo sapiens)
# chain: MGSRGQGLLLAYCLLLAFASGLVLSRVPHVQGEQQEWEGTEELPSPPDHAERAEEQHEKYRPSQDQGLPASRCLRCCDPGTSMYPATAVPQINITILKGEKGDRGDRGLQGKYGKTGSAGARGHTGPKGQKGSMGAPGERCKSHYAAFSVGRKKPMHSNHYYQTVIFDTEFVNLYDHFNMFTGKFYCYVPGLYFFSLNVHTWNQKETYLHIMKNEEEVVILFAQVGDRSIMQSQSLMLELREQDQVWVRLYKGERENAIFSEELDTYITFSGYLVKHATEP
# Tests used:
# A7-BaF-3 cells = assay: Proliferation assay on zsig37-coated plates, A7-BaF-3; assay type: cell-based; conditions: 5,000 cells/well
# Protocol: A second assay was performed with TF-1, DA-1, an IL-3 dependent cell line derived from the lymph node of a mouse with a B-cell lymphoma by outgrowth in IL-3 media, pre-B (p53−/− mouse marrow cells, IL-7 dependent, B220+, Thy1 low, Sca-1+), and A7BaF-3 cell lines as described above at 5,000 cells/well. BHK cells were also plated at 500 cells/well.
# [1] = tested on: CCC4 osteoblast cell line, serum response element (SRE) luciferase; assay: SRE-luciferase assay in CCC4 osteoblast cell line; assay type: cell-based, mice; conditions: 1000 ng/ml zsig37, four hours
# Protocol: Zsig37 polypeptides were assayed in a high throughput, in vitro assay to identify substances that selectively activate cellular responses in immortalized osteoblast cell lines. A mature osteoblast cell line derived from p53−/− (deficient) mice, CCC4, that is transfected with a plasmid containing an inducible serum response element (SRE) driving the expression of luciferase was used in the assay. These cells also express endogenous PTH, PDGF and bFGF receptors.
# CCC4 lines were trypsinized and adjusted to 5×10^4 cells/ml in plating medium (alpha-MEM, 1% heat inactivated fetal bovine serum, 1 mM Na pyruvate and 2 mM L-glutamate) and plated (200 μl/well) into Dynatech Microlite opaque white microtiter plates (Dynatech, Chantilly, Va.) and incubated overnight at 37° C., 5% CO2. The growth medium was then aspirated and replaced with 50 μl/well assay medium (F-12 HAM, 0.5% bovine serum albumin, 20 mM HEPES, 1 mM sodium pyruvate and 2 mM L-glutamate). […] Fifty microliters/well of luciferase substrate (Luciferase Assay Reagent, E1501, Promega Corp.) was added and the Luciferase activity was detected using a Labsystems LUMINOSKAN at 2 second/well following a one second delay. The average basal (uninduced) signal was subtracted from readings as a percentage of the maximal induction produced by 3 ng/ml bFGF. […]
# [2] = tested on: classical pathway of human Complement serum; assay: Complement hemolysis assay, classical pathway (sheep erythrocytes); assay type: biochemical
# Protocol: (§1) Complement assays were performed in 96 well round bottom plates. Gelatin Veronal buffer containing magnesium and calcium (141 mM NaCl, 1.8 mM sodium barbitol, 3.1 mM barbituric acid, 0.1% bovine gelatin, 0.5 mM MgCl2 and 0.15 mM CaCl2) was used for all serum and inhibitor dilutions as well as erythrocyte suspensions. Fifty microliters of standardized human Complement serum (Sigma Chemical Co.), diluted 1/37.5 (for a final dilution of 1/150) was added to each well. The inhibitor was added in triplicate, 50 μl/well. The serum and inhibitor were incubated for thirty minutes at room temperature. The assay was initiated by the addition of 100 μl of 2×10^8/ml unsensitized sheep erythrocytes (Colorado Serum Co.; Denver, Colo.), sensitized sheep erythrocytes, sensitized using the Hemolysin manufacturer's protocol (BioWhittaker Inc.; Walkersville, Md.) and rabbit erythrocytes containing 16 mM EGTA, and 4 mM Mg^++. A human serum dilution series from 1/50 to 1/400 was also plated as an activity control. Erythrocytes, lysed with distilled water and diluted to 100, 75, 50, 25, and 12.5 percent lysis, were used to quantify complement percent lysis. The plate was sealed and incubated at 37° C. for one hour with mixing every 15 minutes. […] The plate was read at 415 nm and percent lysis was calculated.
# [3] = tested on: alternate pathway of human Complement serum; assay: Complement hemolysis assay, alternate pathway (rabbit erythrocytes and EGTA); assay type: biochemical
# Protocol: as §1
# platelets in whole blood = assay: Whole blood platelet activation (Lumi-Aggregometer); assay type: cell-based, human
# Protocol: Blood was drawn from healthy volunteers into tubes containing sodium citrate, maintained at room temperature, and used within four hours of drawing. Whole blood was analyzed for platelet activation using a Chrono-Log 560A Whole Blood Lumi-Aggregometer (Chrono-Log Corp.; Haverton, Pa.) according to manufacturer's instructions. For each test point, 500 μl of blood were added to a reaction tube containing a stir bar and 500 μl of isotonic saline containing zsig37 at concentrations from 0 to 20 μg/ml. The mixture was incubated for four minutes followed by platelet activation initiated by the addition of 5 μl of 1 mg/ml cross-linked collagen (Chrono-Log Corp.) to the blood/zsig37 mixture. Inhibition of activation by ADP (final concentration 10 μM), and thrombin (final concentration lU/ml) were tested in a similar way.
# [4] = tested on: platelets activated by CRP (platelet GPVI); assay: Inhibition of CRP activation of platelets by zsig37; assay type: cell-based, human; conditions: plate coated with 5 μg/ml CRP; zsig37 0-200 μg/ml
# Protocol: The lysine containing CRP (Ac-GKO-(GPO)10-GKOGV) (SEQ ID NO:15) was synthesized and cross-linked essentially as described by described by Morton (Morton et al., Biochem. J., 306(2):337-344 (Mar. 1, 1995)). The potency of the cross-linked CRP was determined using a using a modified microplate platelet aggregation method as described previously (Bednar B., et al., Thrombosis Research, 77(5):453-463 (1995)). Platelet rich plasma (PRP) was prepared by centrifugation (150 g, 30 min.) from citrated blood obtained from healthy volunteers. Modified Hepes Tyrodes buffer (10 mM Hepes, 137 mM NaCl, 2.7 mM KCL, 0.4 mM NaH2PO4, 1.2mM NaHCO3, 0.1% dextrose and 0.2% BSA fraction V) was used to adjust the platelet concentration to 2.6×10^8/mL. To determine potency, triplicate wells of 0-20 μg/ml of CRP was mixed with platelets in a 96-well flat bottom plate. As a control, collagen-I norm was assayed in triplicate at a final concentration of 1.25 μg/mL. The plate was agitated on a microplate reader and turbidity was monitored as percent light transmitted at 632 nm. The EC50 for the CRP was determined from 3 assays to be 0.1-0.2 μg/ml. […] The plate was washed three times with 5% BSA/PBS and triplicate wells of 0-200 μg/ml of zsig37 was incubated for 1 hour at room temperature. Platelets were then added and assayed as described.
molecule,measurement,setting,value
B1,growth of A7-BaF-3 cells,A7-BaF-3 cells,enhanced the growth
same,luciferase expression as percentage of the maximal induction produced by 3 ng/ml bFGF,[1],73 to 75%
same,inhibition of classical pathway lysis,[2]; sensitized sheep erythrocytes,effective in inhibiting the classical pathway
same,inhibition of classical pathway lysis,[2]; unsensitized sheep erythrocytes,effective in inhibiting the classical pathway
same,inhibition of alternate pathway lysis,[3],no apparent inhibition
same,effect on platelet activation stimulated by ADP,platelets in whole blood; ADP final concentration 10 μM,no effect
same,inhibition of collagen-mediated platelet activation,"platelets in whole blood; cross-linked collagen, zsig37 0 to 20 μg/ml",dose dependent relationship between 5 and 20 μg/ml
same,effect on platelet activation stimulated by thrombin,platelets in whole blood; thrombin,no effect
same,inhibition of CRP activation of platelets,[4],results from 3 of 6 assays demonstrated inhibition of CRP
